Assay results reported in patent US20140087995A1 (published 2014).
Each block holds one binder with its values, some of them ahead of it. Numbered stars: 1 amine (or outer) side, 2 acyl side, 3 side chain; on linkers, the order of the positions; unused ones are H or OH. Bridge positions count the residues as written; N and C are the ends. Side chains are listed from the residue outwards. Ends that are not written are not given here. * marks the point of attachment. C20 diacid = O=C(O)CCCCCCCCCCCCCCCCCCC(=O)*; γGlu = O=C(O)[C@H](CCC(=O)[*:2])N[*:1]

Legend:
[1] = target: T1, rat amylin receptor (rat calcitonin receptor + rat RAMP 3) (rat, UniProt P32214 25-516; Q9JJ73 23-147); assay: SPA competition with 125I-rat amylin, membranes of BHK cells with rat calcitonin receptor + rat RAMP3 (Assay VI)
T1 construct: whole, on cells; Membranes of transiently transfected BHK tk'ts 13 cells (Assay VI); also called rAmylin-R; rat amylin 3(a) receptor
T1 sequence (looked up) 1: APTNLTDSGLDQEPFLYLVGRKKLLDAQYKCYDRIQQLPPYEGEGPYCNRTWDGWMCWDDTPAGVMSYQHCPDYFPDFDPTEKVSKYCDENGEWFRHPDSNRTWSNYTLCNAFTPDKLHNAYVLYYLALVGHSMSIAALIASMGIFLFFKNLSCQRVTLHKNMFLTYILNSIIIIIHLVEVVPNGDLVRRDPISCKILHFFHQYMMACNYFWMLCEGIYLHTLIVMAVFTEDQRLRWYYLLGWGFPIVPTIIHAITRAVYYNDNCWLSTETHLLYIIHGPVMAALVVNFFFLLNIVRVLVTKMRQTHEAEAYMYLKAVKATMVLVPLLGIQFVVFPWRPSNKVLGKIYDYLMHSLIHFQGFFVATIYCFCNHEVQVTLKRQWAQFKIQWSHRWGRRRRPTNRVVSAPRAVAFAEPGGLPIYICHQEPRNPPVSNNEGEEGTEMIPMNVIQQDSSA
T1 sequence (looked up) 2: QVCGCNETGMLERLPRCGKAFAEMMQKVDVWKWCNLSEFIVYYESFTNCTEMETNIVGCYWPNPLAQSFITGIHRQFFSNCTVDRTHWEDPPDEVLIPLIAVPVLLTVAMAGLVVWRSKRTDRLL

[2] = target: T2, human calcitonin receptor (human, UniProt P30988 25-474); assay: ratio IC50 human calcitonin receptor / IC50 human amylin receptor (reference)
T2 construct: whole, on cells; Membranes of a stably transfected BHK cell line (Assay VII); also called hCTR; hCT
T2 sequence (looked up): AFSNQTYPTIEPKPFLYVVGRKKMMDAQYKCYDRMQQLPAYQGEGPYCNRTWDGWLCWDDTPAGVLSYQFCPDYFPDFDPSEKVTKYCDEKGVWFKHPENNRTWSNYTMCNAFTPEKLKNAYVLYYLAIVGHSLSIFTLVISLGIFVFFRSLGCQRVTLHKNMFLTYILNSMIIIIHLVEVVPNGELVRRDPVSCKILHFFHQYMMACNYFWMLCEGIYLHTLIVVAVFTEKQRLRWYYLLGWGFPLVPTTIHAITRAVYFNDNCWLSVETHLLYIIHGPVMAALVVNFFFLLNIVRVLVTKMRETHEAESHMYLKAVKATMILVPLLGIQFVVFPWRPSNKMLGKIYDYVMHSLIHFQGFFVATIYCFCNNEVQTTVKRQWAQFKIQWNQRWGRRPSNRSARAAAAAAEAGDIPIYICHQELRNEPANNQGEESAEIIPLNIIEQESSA
In short: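 Competition binding by SPA uses membrane preparations (35 ng/μL final) in pH 7.4 Hepes buffer with 1 mM CaCl2 and 5 mM MgCl₂. Incubation lasts 120 min at 25° C, and IC₅₀ comes from one-site fitting.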

[3] = target: T3, rat calcitonin receptor (rat, UniProt P32214 25-516); assay: ratio IC50 rat calcitonin receptor / IC50 rat amylin receptor (reference)
T3 construct: whole, on cells; Membranes of transiently transfected BHK tk'ts 13 cells (Assay VIII); also called rCTR
T3 sequence (looked up): T1 sequence (looked up) 1

[4] = target: T3, rat calcitonin receptor; assay: SPA competition with 125I-calcitonin, membranes of BHK cells with rat calcitonin receptor (Assay VIII)

IC50 [1]: 0.000449 µM | Ratio hCT/hAmylin binding [2]: 22.6 | Ratio rCT/rAmylin binding [3]: 74.7 | IC50 [4]: 0.0335 µM
B1: N^ε1-[(4S)-4-carboxy-4-[[(4S)-4-carboxy-4-(19-carboxynonadecanoylamino)butanoyl]amino]butanoyl]-[Glu14,Arg17,Pro21,Pro31,Pro34,Glu35]-h-amylin (peptide)
peptide: K([γGlu-γGlu-C20 diacid])CNTATCATQRLAEFLRHSSPNFGAILSSTPVGPETY-NH2
modifications: disulfide 2-7 (inferred)

IC50 [1]: 0.000161 µM | Ratio hCT/hAmylin binding [2]: 45.3 | Ratio rCT/rAmylin binding [3]: 868 | IC50 [4]: 0.14 µM
B2: N^ε1-[(4S)-4-carboxy-4-[[(4S)-4-carboxy-4-(19-carboxynonadecanoylamino)butanoyl]amino]butanoyl]-[Ser14,Arg17,Pro21,Pro27,Pro34,Glu35]-h-amylin (peptide)
peptide: K([γGlu-γGlu-C20 diacid])CNTATCATQRLASFLRHSSPNFGAIPSSTNVGPETY-NH2
modifications: disulfide 2-7; N-terminus assumed
SMILES: CC[C@H](C)[C@H](NC(=O)[C@H](C)NC(=O)CNC(=O)[C@H](Cc1ccccc1)NC(=O)[C@H](CC(N)=O)NC(=O)[C@@H]1CCCN1C(=O)[C@H](CO)NC(=O)[C@H](CO)NC(=O)[C@H](Cc1c[nH]cn1)NC(=O)[C@H](CCCNC(=N)N)NC(=O)[C@H](CC(C)C)NC(=O)[C@H](Cc1ccccc1)NC(=O)[C@H](CO)NC(=O)[C@H](C)NC(=O)[C@H](CC(C)C)NC(=O)[C@H](CCCNC(=N)N)NC(=O)[C@H](CCC(N)=O)NC(=O)[C@@H](NC(=O)[C@H](C)NC(=O)[C@@H]1CSSC[C@H](NC(=O)[C@@H](N)CCCCNC(=O)CC[C@H](NC(=O)CC[C@H](NC(=O)CCCCCCCCCCCCCCCCCCC(=O)O)C(=O)O)C(=O)O)C(=O)N[C@@H](CC(N)=O)C(=O)N[C@@H]([C@@H](C)O)C(=O)N[C@@H](C)C(=O)N[C@@H]([C@@H](C)O)C(=O)N1)[C@@H](C)O)C(=O)N1CCC[C@H]1C(=O)N[C@@H](CO)C(=O)N[C@@H](CO)C(=O)N[C@H](C(=O)N[C@@H](CC(N)=O)C(=O)N[C@H](C(=O)NCC(=O)N1CCC[C@H]1C(=O)N[C@@H](CCC(=O)O)C(=O)N[C@H](C(=O)N[C@@H](Cc1ccc(O)cc1)C(N)=O)[C@@H](C)O)C(C)C)[C@@H](C)O
notes: also called compound 120

IC50 [1]: 0.000668 µM | Ratio hCT/hAmylin binding [2]: 145 | Ratio rCT/rAmylin binding [3]: 156 | IC50 [4]: 0.104 µM
B3: N^ε1-[(4S)-4-carboxy-4-[[(4S)-4-carboxy-4-(19-carboxynonadecanoylamino)butanoyl]amino]butanoyl]-[His14,Arg17,Pro21,Pro27]-h-amylin (peptide)
peptide: K([γGlu-γGlu-C20 diacid])CNTATCATQRLAHFLRHSSPNFGAIPSSTNVGSNTY-NH2
modifications: disulfide 2-7; N-terminus assumed
SMILES: CC[C@H](C)[C@H](NC(=O)[C@H](C)NC(=O)CNC(=O)[C@H](Cc1ccccc1)NC(=O)[C@H](CC(N)=O)NC(=O)[C@@H]1CCCN1C(=O)[C@H](CO)NC(=O)[C@H](CO)NC(=O)[C@H](Cc1c[nH]cn1)NC(=O)[C@H](CCCNC(=N)N)NC(=O)[C@H](CC(C)C)NC(=O)[C@H](Cc1ccccc1)NC(=O)[C@H](Cc1c[nH]cn1)NC(=O)[C@H](C)NC(=O)[C@H](CC(C)C)NC(=O)[C@H](CCCNC(=N)N)NC(=O)[C@H](CCC(N)=O)NC(=O)[C@@H](NC(=O)[C@H](C)NC(=O)[C@@H]1CSSC[C@H](NC(=O)[C@@H](N)CCCCNC(=O)CC[C@H](NC(=O)CC[C@H](NC(=O)CCCCCCCCCCCCCCCCCCC(=O)O)C(=O)O)C(=O)O)C(=O)N[C@@H](CC(N)=O)C(=O)N[C@@H]([C@@H](C)O)C(=O)N[C@@H](C)C(=O)N[C@@H]([C@@H](C)O)C(=O)N1)[C@@H](C)O)C(=O)N1CCC[C@H]1C(=O)N[C@@H](CO)C(=O)N[C@@H](CO)C(=O)N[C@H](C(=O)N[C@@H](CC(N)=O)C(=O)N[C@H](C(=O)NCC(=O)N[C@@H](CO)C(=O)N[C@@H](CC(N)=O)C(=O)N[C@H](C(=O)N[C@@H](Cc1ccc(O)cc1)C(N)=O)[C@@H](C)O)C(C)C)[C@@H](C)O
notes: also called compound 92

IC50 [1]: 0.0112 µM | Ratio hCT/hAmylin binding [2]: 65.3 | Ratio rCT/rAmylin binding [3]: 27.7 | IC50 [4]: 0.311 µM
B4: N^-1-[(4S)-4-carboxy-4-(19-carboxynonadecanoylamino)butanoyl]-Gly[Arg1,His14,Arg17,Pro21,Pro27,His34]-h-amylin (peptide)
peptide: {C20 diacid-γGlu}-GRCNTATCATQRLAHFLRHSSPNFGAIPSSTNVGHNTY-NH2
modifications: disulfide 3-8
SMILES: CC[C@H](C)[C@H](NC(=O)[C@H](C)NC(=O)CNC(=O)[C@H](Cc1ccccc1)NC(=O)[C@H](CC(N)=O)NC(=O)[C@@H]1CCCN1C(=O)[C@H](CO)NC(=O)[C@H](CO)NC(=O)[C@H](Cc1c[nH]cn1)NC(=O)[C@H](CCCNC(=N)N)NC(=O)[C@H](CC(C)C)NC(=O)[C@H](Cc1ccccc1)NC(=O)[C@H](Cc1c[nH]cn1)NC(=O)[C@H](C)NC(=O)[C@H](CC(C)C)NC(=O)[C@H](CCCNC(=N)N)NC(=O)[C@H](CCC(N)=O)NC(=O)[C@@H](NC(=O)[C@H](C)NC(=O)[C@@H]1CSSC[C@H](NC(=O)[C@H](CCCNC(=N)N)NC(=O)CNC(=O)CC[C@H](NC(=O)CCCCCCCCCCCCCCCCCCC(=O)O)C(=O)O)C(=O)N[C@@H](CC(N)=O)C(=O)N[C@@H]([C@@H](C)O)C(=O)N[C@@H](C)C(=O)N[C@@H]([C@@H](C)O)C(=O)N1)[C@@H](C)O)C(=O)N1CCC[C@H]1C(=O)N[C@@H](CO)C(=O)N[C@@H](CO)C(=O)N[C@H](C(=O)N[C@@H](CC(N)=O)C(=O)N[C@H](C(=O)NCC(=O)N[C@@H](Cc1c[nH]cn1)C(=O)N[C@@H](CC(N)=O)C(=O)N[C@H](C(=O)N[C@@H](Cc1ccc(O)cc1)C(N)=O)[C@@H](C)O)C(C)C)[C@@H](C)O
notes: also called compound 100

IC50 [1]: 0.00807 µM | Ratio hCT/hAmylin binding [2]: 68.6 | Ratio rCT/rAmylin binding [3]: 60.9 | IC50 [4]: 0.492 µM
B5: N^-1-[(4S)-4-carboxy-4-(19-carboxynonadecanoylamino)butanoyl]-Gly[Arg1,Ala14,Arg17,Pro21,Pro27,His34]-h-amylin (peptide)
peptide: {C20 diacid-γGlu}-GRCNTATCATQRLAAFLRHSSPNFGAIPSSTNVGHNTY-NH2
modifications: disulfide 3-8
SMILES: CC[C@H](C)[C@H](NC(=O)[C@H](C)NC(=O)CNC(=O)[C@H](Cc1ccccc1)NC(=O)[C@H](CC(N)=O)NC(=O)[C@@H]1CCCN1C(=O)[C@H](CO)NC(=O)[C@H](CO)NC(=O)[C@H](Cc1c[nH]cn1)NC(=O)[C@H](CCCNC(=N)N)NC(=O)[C@H](CC(C)C)NC(=O)[C@H](Cc1ccccc1)NC(=O)[C@H](C)NC(=O)[C@H](C)NC(=O)[C@H](CC(C)C)NC(=O)[C@H](CCCNC(=N)N)NC(=O)[C@H](CCC(N)=O)NC(=O)[C@@H](NC(=O)[C@H](C)NC(=O)[C@@H]1CSSC[C@H](NC(=O)[C@H](CCCNC(=N)N)NC(=O)CNC(=O)CC[C@H](NC(=O)CCCCCCCCCCCCCCCCCCC(=O)O)C(=O)O)C(=O)N[C@@H](CC(N)=O)C(=O)N[C@@H]([C@@H](C)O)C(=O)N[C@@H](C)C(=O)N[C@@H]([C@@H](C)O)C(=O)N1)[C@@H](C)O)C(=O)N1CCC[C@H]1C(=O)N[C@@H](CO)C(=O)N[C@@H](CO)C(=O)N[C@H](C(=O)N[C@@H](CC(N)=O)C(=O)N[C@H](C(=O)NCC(=O)N[C@@H](Cc1c[nH]cn1)C(=O)N[C@@H](CC(N)=O)C(=O)N[C@H](C(=O)N[C@@H](Cc1ccc(O)cc1)C(N)=O)[C@@H](C)O)C(C)C)[C@@H](C)O

IC50 [1]: 0.000436 µM | Ratio hCT/hAmylin binding [2]: 26.5 | Ratio rCT/rAmylin binding [3]: 129 | IC50 [4]: 0.0563 µM
B6: N^-1-[(4S)-4-carboxy-4-(19-carboxynonadecanoylamino)butanoyl]-Gly[Arg1,Ala14,Arg17,Pro21,Pro27,Pro34]-h-amylin (peptide)
peptide: {C20 diacid-γGlu}-GRCNTATCATQRLAAFLRHSSPNFGAIPSSTNVGPNTY-NH2
modifications: disulfide 3-8
